According to publication PMC2397485 (2008):

Columns and labels:
Assay in all cases: high-speed co-sedimentation
[1] = molecular target: F-actin (skeletal muscle) (Oryctolagus cuniculus, UniProt P68135)
[2] = molecular target: F-actin (Saccharomyces cerevisiae, UniProt P60010)
[3] = molecular target: F-actin (act1-102) (Saccharomyces cerevisiae, UniProt P60010)

Row | Kd [1] | Kd [2] | Kd [3] | Binder
1 | 7.1 µM | – | – | Scp1(1-180) 1-180 (protein) MSYDKKADVTSLDEDLRQLRESKFSPEAIQNIKIWVYKSVLKEIAPPGDLLECLKDGTVLCKLANILYEADTGEANHISWKSSKMPFVQMDQISQFLSFSRKYGVPEDELFQTIDLFEKKDPAIVFQTLKSLSRYANKKHTDRFPVLGPQLSTKKPRPPVKSKPKHLQDGTGWSTFEYGY
2 | 2.1 µM | 1.3 µM | 7.9 µM | Scp1 (protein) SYDKKADVTSLDEDLRQLRESKFSPEAIQNIKIWVYKSVLKEIAPPGDLLECLKDGTVLCKLANILYEADTGEANHISWKSSKMPFVQMDQISQFLSFSRKYGVPEDELFQTIDLFEKKDPAIVFQTLKSLSRYANKKHTDRFPVLGPQLSTKKPRPPVKSKPKHLQDGTGWSTFEYGYMKGASQATEGVVLGQRRDIV
